Assay results published in paper PMC3497731 (Bioscience Reports, 2012).
Where “and” joins values, the source holds several entries; their conditions need not be identical. Equal values may be shown once. Values belong to the molecule of their own block, whether it stands above or below them.

Tests used:
[1] = molecular target: adiponectin secreted from isolated rat primary adipocytes (rat (endogenous in primary adipocytes)); assay: native gel or EMSA
SEC = molecular target: the molecule itself; assay: SEC
[2] = molecular target: the molecule itself; assay: non-reducing denaturing SDS/PAGE
native gel or EMSA [3] = molecular target: the molecule itself; assay: native gel or EMSA
native gel or EMSA [4] = molecular target: the molecule itself; assay: native gel or EMSA; remark: listed apart in the source

stoichiometry N [1]: 6 and 3
Molecule: adiponectin secreted from isolated rat primary adipocytes (natural protein)

B1: adiponectin purified from bovine serum (natural protein, UniProt Q3Y5Z3 18-240, looked up)
chain: EDNMEDPPLPKGACAGWMAGIPGHPGHNGTPGRDGRDGTPGEKGEKGDPGLVGPKGDTGETGITGIEGPRGFPGTPGRKGEPGESAYVYRSAFSVGLERQVTVPNVPIRFTKIFYNQQNHYDGTTGKFLCNIPGLYYFSYHITVYLKDVKVSLYKNDKALLFTHDQFQDKNVDQASGSVLLYLEKGDQVWLQVYEGENHNGVYADNVNDSTFTGFLLYHNIVE
stoichiometry N (SEC): 6

B2: FLAG epitope-tagged mouse adiponectin (natural protein, UniProt Q60994 18-247, looked up)
chain: EDDVTTTEELAPALVPPPKGTCAGWMAGIPGHPGHNGTPGRDGRDGTPGEKGEKGDAGLLGPKGETGDVGMTGAEGPRGFPGTPGRKGEPGEAAYVYRSAFSVGLETRVTVPNVPIRFTKIFYNQQNHYDGSTGKFYCNIPGLYYFSYHITVYMKDVKVSLFKKDKAVLFTYDQYQEKNVDQASGSVLLHLEVGDQVWLQVYGDGDHNGLYADNVNDSTFTGFLLYHDTN
stoichiometry N [2]: 2
stoichiometry N (native gel or EMSA [3]): 6 and 3

B3: adiponectin of differentiated 3T3-L1 adipocytes (natural protein, mouse (endogenous in 3T3-L1), UniProt Q60994 18-247, looked up)
chain: B2 chain
stoichiometry N (native gel or EMSA [4]): 6 and 3
